Experimental data reported in article PMC10680704.

Molecular target: IGF2R ectodomain, recombinant, AlexaFlour488-labeled (UniProt P11717)

EC50 of mCherry uptake by K562 cells [nM] | Substance
16 | G2 mCherry GELYTAC (IGF2 E6R, F19L, S39P), recombinant
101 | mCherry GELYTAC (original, wild-type IGF2), recombinant
